Assay results published in PMC4363203.

Target: centromere protein A (CENP-A), histone H3 variant (human (endogenous in HcoEpiC, HeLa and SW480)) (UniProt P49450)
Experiment: co-IP; sequential native CENP-A IP of the chromatin left unbound by the CENP-B IP ('ectopic CENP-A'); SW480 cells; quantitative fluorescent western blot, background-corrected, input-adjusted ratio to the CENP-B IP

Sequence of UniProt P49450 (P49450 whole entry, change not shown): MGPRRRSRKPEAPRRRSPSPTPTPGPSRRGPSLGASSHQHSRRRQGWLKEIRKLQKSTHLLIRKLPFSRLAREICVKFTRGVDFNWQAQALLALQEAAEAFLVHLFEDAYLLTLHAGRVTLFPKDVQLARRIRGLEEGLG

ATRX fold enrichment (Seq. CpA IP/CpB IP) [fold] | H3 fold enrichment (Seq. CpA IP/CpB IP) [fold] | Substance
0.81 |  | ATRX, transcription-coupled histone chaperone (from UniProt P46100 1-2492) (natural protein)
 | 2.91 | canonical histone H3 (from UniProt P68431 1-136) (natural protein)
